These results are taken from patent US20080008719A1 (Alexion, published 2008).

Residue numbers refer to the chain shown, from its start.

One assay has as its target T1, Integrin alpha3/beta1 (human, UniProt P26006 33-1051; P05556 21-798).
T1 construct: also called α3β1
Put plainly: immunoprecipitation from PC-3 membrane lysate with biotinylated Fab, mass spectrometry.

The target in assay [1] is CUB-domain-containing protein 1 (CDCP1) (human) (UniProt Q9H5V8). Briefly: flow cytometry on PC-3 cells. On the technique in general: A flow cytometer gives signals particle by particle.

T1 sequence (P26006 33-1051 limits assumed, chain 1 of 2): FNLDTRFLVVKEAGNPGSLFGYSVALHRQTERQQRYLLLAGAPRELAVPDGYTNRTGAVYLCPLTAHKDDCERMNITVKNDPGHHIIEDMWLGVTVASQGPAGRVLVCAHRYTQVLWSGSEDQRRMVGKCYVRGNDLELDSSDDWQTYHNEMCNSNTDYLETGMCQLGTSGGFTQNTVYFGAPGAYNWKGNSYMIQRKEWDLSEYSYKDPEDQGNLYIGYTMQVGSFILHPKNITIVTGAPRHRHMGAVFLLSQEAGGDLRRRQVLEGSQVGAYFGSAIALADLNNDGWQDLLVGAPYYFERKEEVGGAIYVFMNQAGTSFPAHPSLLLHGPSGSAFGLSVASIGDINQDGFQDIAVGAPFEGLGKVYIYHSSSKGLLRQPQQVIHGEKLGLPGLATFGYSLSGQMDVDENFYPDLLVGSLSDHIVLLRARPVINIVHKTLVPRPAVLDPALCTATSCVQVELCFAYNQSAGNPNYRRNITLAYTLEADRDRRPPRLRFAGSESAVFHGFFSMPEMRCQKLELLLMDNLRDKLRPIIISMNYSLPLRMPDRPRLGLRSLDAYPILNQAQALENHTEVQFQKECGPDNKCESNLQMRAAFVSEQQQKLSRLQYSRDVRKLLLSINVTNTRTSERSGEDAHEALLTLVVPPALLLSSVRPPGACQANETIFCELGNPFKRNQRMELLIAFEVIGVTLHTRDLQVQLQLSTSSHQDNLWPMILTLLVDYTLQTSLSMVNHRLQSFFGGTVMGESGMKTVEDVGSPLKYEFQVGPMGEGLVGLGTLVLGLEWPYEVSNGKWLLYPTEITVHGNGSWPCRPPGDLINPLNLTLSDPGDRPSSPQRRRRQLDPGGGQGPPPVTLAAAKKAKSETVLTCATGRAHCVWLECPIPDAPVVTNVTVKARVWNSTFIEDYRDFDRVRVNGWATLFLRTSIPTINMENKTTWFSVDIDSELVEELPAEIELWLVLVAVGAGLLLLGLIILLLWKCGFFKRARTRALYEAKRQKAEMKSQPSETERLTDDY
T1 sequence (P05556 21-798 limits assumed, chain 2 of 2): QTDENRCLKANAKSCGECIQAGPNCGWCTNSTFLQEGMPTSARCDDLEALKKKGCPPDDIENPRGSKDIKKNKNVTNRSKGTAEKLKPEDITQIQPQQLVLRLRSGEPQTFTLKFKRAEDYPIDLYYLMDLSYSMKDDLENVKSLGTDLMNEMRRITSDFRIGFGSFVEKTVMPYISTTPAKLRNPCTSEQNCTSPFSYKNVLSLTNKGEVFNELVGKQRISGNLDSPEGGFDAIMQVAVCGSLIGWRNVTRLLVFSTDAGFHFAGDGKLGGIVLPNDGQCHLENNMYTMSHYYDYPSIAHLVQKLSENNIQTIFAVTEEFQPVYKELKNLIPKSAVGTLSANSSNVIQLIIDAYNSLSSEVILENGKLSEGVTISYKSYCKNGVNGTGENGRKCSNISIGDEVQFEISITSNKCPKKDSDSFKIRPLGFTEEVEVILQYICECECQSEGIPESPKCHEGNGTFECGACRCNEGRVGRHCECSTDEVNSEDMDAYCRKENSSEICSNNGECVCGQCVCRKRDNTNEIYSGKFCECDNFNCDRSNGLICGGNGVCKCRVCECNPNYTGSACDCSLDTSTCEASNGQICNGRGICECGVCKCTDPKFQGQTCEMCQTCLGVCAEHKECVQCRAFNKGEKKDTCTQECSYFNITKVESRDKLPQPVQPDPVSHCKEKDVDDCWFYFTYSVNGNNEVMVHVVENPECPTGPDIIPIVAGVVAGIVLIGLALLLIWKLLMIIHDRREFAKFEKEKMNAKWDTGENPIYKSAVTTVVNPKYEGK
Protocol for Integrin alpha3/beta1: PC-3 cell membranes (10⁸ cell equivalents/mL) in Nonidet P-40 Lysis Buffer (1% Nonidet P-40, 50 mM Tris.HCl pH 7.5, 0.15 M NaCl, 10% glycerol plus Complete Protease Inhibitors) were incubated with 50 μg/mL chicken egg white avidin for 30 min on ice. Insoluble material was removed by centrifugation for 30 min at 150,000 g. The lysate was precleared with normal rabbit serum and protein G Sepharose beads (Amersham-Pharmacia, Piscataway, N.J.). Antigens were captured by adding biotinylated Fabs (10 μg/mL) to the lysate and incubating overnight at 4° C. Immobilized streptavidin was added (50 μL of packed beads per mL) for 3 h at 4° C. with gentle mixing, followed by five washes with Nonidet P-40 Lysis Buffer. After SDS-PAGE separation, antigen bands were cut from the gel.

B1: Fab 84H7 (Fab, V domains shown)
VH: EVQLQQSGAVLLKPGASVKLSCTASGFNIKDTYIHWMKQRPEQGLEWIGRIDPADGNTKYDPKFQGKATITADTSSNTAYLQLSSLTSEDTAVYYCTTAFYYSMDYWGQGTSVTVSS
VL: DIVLTQSQKFMSTSVGDRVSVTCKASQNVGTNVAWYQQKPGQSPKALIYSASYRYSGVPDRFTGSGSGTDFTLTISNVQSEDLAEYFCQQYNSYPRTFGGGTKLEIKR
notes: also called 84H7 (63C10)
Take B1: in the assay with Integrin alpha3/beta1, the binding result is listed as “binds”.

B2: Fab 36C1 (Fab, V domains shown)
VH: B1 VH with V10E, L12V, K38N, G66D, Q82H
VL: B1 VL with L4M, K39T, S76N, K103T
As for B2, in the assay with Integrin alpha3/beta1, the binding result is “binds”.

B3: Fab 25A11 (murine Fab) (Fab, V domains shown)
VH: EVQLQQPGAELVKPGASVKMSCKASGYTFTSYYMYWVKQRPGQGLEWIGEINPSHGGTNFNEKFKNKATLTVDKSSSTVYMQLSSLTSEDSAVYYCTRGGNYPYFAMDYWGQGTSVTVSS
VL: DIQMTQTTSSLSASLGDRVTISCRASQDISNYLNWYQQKPDGTVKLLIYYTSRLHSGVPSRFSGSGSGTDYSLTISNLEQEDIATYFCQQGNTLPWTFGGGTKLEIKR
In assay [1], B3 displayed a percent saturation of PC-3 cells at 160 nM Fab of 80%.

B4: Fab 23E9 (Fab, V domains shown)
VH: EVELQQSGAELVKPGASVKLSCKASGYTFTNYYMHWVKQRPGQGLEWIGEINPSSGGTNFNEKFKSKATLTVDKSSSTAYMQLSSLTSEDSAVYYCTRFDRTENGMDYWGQGTSVTVSS
VL: DNVLTQSPASLAVSPGQRATISCKASQSVDYDGDNYMNWYQQKPGQPPKLLIYAASNLESGIPARFSGSGSGTDFTLNIHPVEEEDAATYFCQQSDEDPYTFGGGTKLEIKR
Turning to B4, in the assay with Integrin alpha3/beta1, the binding result is listed as “binds”.

B5: Fab 61E10 (Fab, V domains shown)
VH: B4 VH with E3Q, M106L
VL: B4 VL with N2I, L4M, P15L, F91Y, D96N, E97G, Y100W
In the case of B5, the binding result in the assay with Integrin alpha3/beta1 is “binds”.
